Measurements reported in patent publication US8008452B2, “Phosphorylated Ndr kinase” (Novartis Forschungesstiftung, Zweigniederlassung Friedrich …, priority 2002, dated 2011).

Experiments:
GST-NDR1 [1] = biological target: T1, GST-NDR1 (Homo sapiens, UniProt Q15208); experiment: GST-NDR1 in vitro autophosphorylation, incorporated 32P by Cerenkov counting; format: biochemical; conditions: in vitro
T1 construct: made in house; host or cells: E. coli BL21-DE3-pRep4
Experimental: (§1) BL21-DE3-pRep4 E. coli strain was transformed with the pGEX-2T_NDR1 wild type or mutant plasmids. BL21-DE3 is a protease-deficient E. coli strain and pRep4 is a Laclq repressor-bearing plasmid both available commercially. Optionally, if desired, an E. coli strain comprising GroESL can be used, which expresses a chaperone protein that stabilizes the kinase. Mid-logarithmic phase cells were induced with 0.5 mM isopropyl beta-D-thiogalactopyranoside (IPTG) for 4 hours at 30° C. Bacteria were lysed using a French press in the presence of 1 mg/ml lysosyme, and the fusion proteins were purified on glutathione-agarose (Amersham Pharmacia Biotech) as described by the manufacturers. Recombinant proteins were assayed for kinase activity as described below and autophosphorylation was determined after SDS-PAGE separation either by Cerenkov counting or by exposure to a PhosphorImager screen followed by analysis with ImageQuant software (Molecular Dynamics).
(§2) In brief, 1 microgram of purified GST-NDR1 (in solution ˜0.5 microM) wild type, kinase dead (K118A), and alanine mutants of phosphorylation residues Thr74, Ser281, and Thr444 were autophosphorylated for 2 hours in vitro without further additions or in the presence of 1 mM CaCl2 and 10 microM bovine S100B. Proteins were visualized on SDS gels using Coomassie Blue R-350 stained SDS-PAGE gel, and [gamma-^32P]ATP-labelled proteins were visualized by autoradiography of the gels developed on a Phosphorimager screen. The amount of incorporated ^32P was quantified by Cerenkov counting.

GST-NDR1 [2] = experiment: as above; format: biochemical, human; conditions: GST-NDR1 variant
Experimental: as §1, §2

GST-NDR1 [3] = experiment: GST-NDR1 kinase assay (peptide kinase assay); format: biochemical, human; design: Specific activity of GST-NDR1 variants, CTRL / Specific activity of GST-NDR1 variants, −S100B / Specific activity of GST-NDR1 variants, +S100B: unit not given here
Experimental: 1 microgram of purified recombinant GST-NDR1 wild type and mutants (without further treatment or autophosphorylated for 2 h in the presence or absence of 1 mM CaCl2 and […] (Sigma)) were assayed in 20 microliter of reaction mixture containing 20 mM Tris-HCl pH 7.5, 10 mM MgCl2, 1 mM DTT, 100 microM [gamma-^32P]ATP (˜0.5 microCi/microliter), and 1 mM NDR1 substrate peptide ([…]; SEQ ID NO:22). After 30 mins incubation at 30° C., reactions were stopped with 50 mM EDTA, and 10 microliters of reaction mixture were spotted onto 2 cm^2 squares of P81 phosphocellulose paper (Whatman). These were subsequently washed for 4×5 min and 3×20 min in 1% phosphoric acid and once in acetone before counting in a liquid scintillation counter. One unit of NDR1 activity was defined as the amount which catalyses the phosphorylation of 1 nmol peptide substrate in 1 min.
Specific activity of GST-NDR1 mutants was also measured by a peptide kinase assay as described above. For this purpose, 1 microgram of purified GST-NDR1 wild type and alanine mutants were left without further treatment or autophosphorylated for 2 h in the presence or absence of 1 mM CaCl2 and […].

HA-NDR1 = HA-NDR1 kinase assay on 12CA5 immunoprecipitates from transfected, treated COS-1 cells; format: cell-based, human; design: kinase activity of HA-NDR1 variants, −OA: unit not given here; conditions: COS-1 cells
Experimental: In some experiments, the cells were treated for 60 min with 1 microM okadaic acid in 0.1% N,N-dimethylformamide (DMF) (Alexis Corp.), 50 microM BAPTA-AM (1,2-bis (o-aminophenoxy) ethane-N,N,N′,N′-tetraacetic acid tetra (acetoxy-methyl)ester) in 0.1% diimethylsulfoxide (DMSO; Sigma), or 20 microM thapsigargin in 0.1% DMSO (Alomone) 24 hours after transfection.
Transfected and treated COS-1 cells were washed once with ice-cold PBS, and harvested by rubber policeman in 1 ml ice-cold PBS containing 1 mM Na3VO4 and 20 mM beta-glycerophosphate before lysis in 500 microliters of IP buffer (20 mM Tris-HCl pH 8.0, 150 mM NaCl, 1% Nonidet P-40, 10% glycerol, 1 mM Na3VO4, 20 mM beta-glycerolphosphate, 1 microM microcystin-LR, 50 mM NaF, 0.5 mM PMSF, 4 microM leupeptin, 1 mM benzamidine, and 1 tablet/10 ml IP of Complete protease inhibitors (Roche)). Lysates were centrifuged at 20 000 g for 20 min and triplicate aliquots (200 microg) of supernatant were precleared with protein A-Sepharose (Amersham Pharmacia Biotech) for 60 min and mixed subsequently for 3 h at 4° C. with 12CA5 antibody prebound to protein A-Sepharose (˜1 microg antibody bound to 2 microl beads). The beads were then washed twice with IP buffer, once for 10 min with IP buffer containing 1 M NaCl, once again for 10 min with IP buffer, and finally twice with 20 mM Tris-HCl pH 7.5 containing 4 microM leupeptin and 1 mM benzamidine. Thereafter, beads were resuspended in 30 microliters buffer containing 20 mM Tris-HCl pH 7.5, 10 mM MgCl2, 1 mM DTT, 100 microM [gamma-^32P]ATP (˜0.1 microCi/microliter), 1 microM cAMP-dependent protein kinase inhibitor peptide PKI (Bachem), 4 microM leupeptin, 1 mM benzamidine, 1 microM microcystin-LR, and 1 mM NDR1 substrate peptide ([…]). After 60 min incubation at 30° C., 15 microliters of supernatant were removed, and phosphate incorporation into the substrate peptide determined as described for GST-NDR1 above.
COS-1 cells expressing either wild type HA-NDR1 or the indicated mutants were treated for 1 h with 1 microM okadaic acid or with solvent alone. HA-tagged NDR kinase variants were then immunoprecipitated (out of 100 microgram of detergent extracts) with 12CA5 monoclonal antibody and assayed for kinase activity by a peptide kinase assay as described above.
Mock-transfected or HA-NDR1-expressing COS-1 cells were treated for 1 h with […], 50 microM BAPTA-AM, and […] or with solvent (0.1% DMF or 0.1% DMSO) alone. 12CA5 immunoprecipitates (out of 100 microgram protein extract) were then assayed using the peptide kinase assay for NDR1 kinase activity.
To test whether hMOB1 plays a role in NDR activation, myc-hMOB1 or the empty vector was cotransfected with HA-NDR1 in COS1 cells and treated with OA. 12CA5 immunoprecipitates were then assayed using the peptide kinase assay for HA-NDR kinase activity. […] GST-MOB and GST respectively was added to immunoprecipitated HA-NDR and kinase reaction were performed. The reactions were resolved on a 10% SDS PAGE and the radioactivity visualised by using a phosphoimager.

T1 sequence (Q15208 2-465): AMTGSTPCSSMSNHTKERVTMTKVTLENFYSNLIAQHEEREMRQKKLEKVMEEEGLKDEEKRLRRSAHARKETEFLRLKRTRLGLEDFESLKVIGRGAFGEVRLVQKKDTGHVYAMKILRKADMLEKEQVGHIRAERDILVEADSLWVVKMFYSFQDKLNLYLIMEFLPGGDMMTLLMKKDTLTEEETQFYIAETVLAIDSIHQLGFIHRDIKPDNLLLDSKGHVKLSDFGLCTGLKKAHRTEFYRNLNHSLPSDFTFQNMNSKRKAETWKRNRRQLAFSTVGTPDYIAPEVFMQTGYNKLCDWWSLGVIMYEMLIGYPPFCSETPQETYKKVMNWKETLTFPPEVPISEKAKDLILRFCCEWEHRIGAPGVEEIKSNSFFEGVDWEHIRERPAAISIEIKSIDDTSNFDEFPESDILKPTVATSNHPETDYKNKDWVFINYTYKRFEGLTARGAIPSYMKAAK

WT: human NDR1 wild type; GST fusion in the 2nd table, the 3rd table, HA-tagged in the 4th table
autophosphorylation of wild-type GST-NDR1 in vitro (GST-NDR1 [1]): up to 0.4 pmol ATP/pmol GST-NDR1
amount of incorporated 32P (autophosphorylation), −S100B (GST-NDR1 [2]; 1 microgram, autophosphorylated 2 hours without further additions, pmol ATP/pmol GST-NDR1): 0.1688
amount of incorporated 32P (autophosphorylation), +S100B (GST-NDR1 [2]; 2 hours in the presence of 1 mM CaCl2 and 10 microM bovine S100B, in pmol ATP/pmol GST-NDR1): 0.3512
Specific activity of GST-NDR1 variants, −S100B (GST-NDR1 [3]; autophosphorylated 2 h in the absence of CaCl2 and S100B): 4.106
Specific activity of GST-NDR1 variants, +S100B (GST-NDR1 [3]; autophosphorylated 2 h in the presence of 1 mM CaCl2 and 10 mM bovine S100B): 21.348
Specific activity of GST-NDR1 variants, CTRL (GST-NDR1 [3]; left without further treatment): 1
kinase activity of HA-NDR1 variants, +OA (HA-NDR1; 1 microM okadaic acid 1 h): 10.8852
kinase activity of HA-NDR1 variants, −OA (HA-NDR1; solvent alone 1 h): 0.3532
